Read-outs that look alike come from different tables or passages of the source.
How the values were obtained:
GATA3 C-finger [1] = biological target: T1, GATA3 C-finger (mouse, UniProt P23772 308-370); assay: X-ray crystallography
GATA3 C-finger [2] = biological target: T1, GATA3 C-finger; assay: X-ray crystallography; remark: listed apart in the source

T1 sequence (P23772 308-370): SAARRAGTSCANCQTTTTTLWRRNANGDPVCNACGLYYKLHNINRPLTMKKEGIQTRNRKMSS

Row | Binder | binding result (GATA3 C-finger [1]) | binding result (GATA3 C-finger [2])
1 | ADJ DNA (crystal) (dsDNA) DNA 1: TTCTGATAAGACTTATCTGC DNA 2: AAGCAGATAAGTCTTATCAG | binds | –
2 | OPP DNA (crystal) (dsDNA) DNA 1: TTGATAAATCAGAGATAACC DNA 2: AAGGTTATCTCTGATTTATC | – | binds

From paper PMC4559223
